From patent publication US20250122303A1, “TREATMENT AND PREVENTION OF CANCER USING HER3 ANTIGEN-BINDING MOLECULES” (Hummingbird Bioscience Pte. Ltd., priority 2021, published 2025)
Entries after “also recorded” stand apart in the source; their conditions may differ.

Assays:
rat HER3 = target: T1, rat HER3 (Rattus norvegicus, UniProt Q62799); assay: ELISA cross-reactivity, rat HER3; assay type: binding
T1 construct: purchased Sino Biological Inc., China
Protocol: (§1) ELISAs were used to determine the binding specificity of the antibodies. The antibodies were analysed for binding to human HER3 polypeptide, as well as respective mouse, rat and monkey homologues of HER3 (Sino Biological Inc., China). The antibodies were also analysed for their ability to bind to human EGFR and human HER2 (Sino Biological Inc., China).
ELISAs were carried out according to standard protocols. Briefly, 96-well plates (Nunc, Denmark) were coated with 0.1 μg/ml of target polypeptide in phosphate-buffered saline (PBS) for 16 h at 4° C. After blocking for 1 h with 1% BSA in Tris buffer saline (TBS) at room temperature, the anti-HER3 antibody was serially diluted with the highest concentration being 10 μg/ml, and added to the plate. Post 1 h incubation at room temperature, plates were washed three times with TBS containing 0.05% Tween 20 (TBS-T) and were then incubated with a HRP-conjugated anti-His antibody (Life Technologies, Inc., USA) for 1 h at room temperature. After washing, plates were developed with colorimetric detection substrate 3,3′,5,5′-tetramethylbenzidine (Turbo-TMB; Pierce, USA) for 10 min. The reaction was stopped with 2M H2SO4, and OD was measured at 450 nm. […]

human HER2 = target: T2, human HER2 (Homo sapiens, UniProt P04626); assay: ELISA specificity, human HER2; assay type: binding; settings: antibody up to 10 μg/ml
T2 construct: purchased Sino Biological Inc., China
Protocol: as §1
ELISAs were carried out according to standard protocols. Briefly, 96-well plates (Nunc, Denmark) were coated with 0.1 μg/ml of target polypeptide in phosphate-buffered saline (PBS) for 16 h at 4° C. After blocking for 1 h with 1% BSA in Tris buffer saline (TBS) at room temperature, the anti-HER3 antibody was serially diluted with the highest concentration being 10 μg/ml, and added to the plate. Post 1 h incubation at room temperature, plates were washed three times with TBS containing 0.05% Tween 20 (TBS-T) and were then incubated with a HRP-conjugated anti-His antibody (Life Technologies, Inc., USA) for 1 h at room temperature. […] The reaction was stopped with 2M H2SO4, and OD was measured at 450 nm.
The antibodies were analysed for their ability to bind to human HER3 polypeptide as well as human HER1 (EGFR) and human HER2 (Sino Biological Inc., China). […]
ELISAs were carried out according to standard protocols. […] The reaction was stopped with 2M H2SO4, and OD was measured at 450 nm.

human HER3 = human HER3 (Homo sapiens, UniProt P21860); assay: Global affinity study, Bio-Layer Interferometry (Octet QK384); assay type: binding; settings: IgG1 format, 25° C.; read-out: KD
Protocol: The anti-HER3 antibody clones in IgG1 format were analysed for binding affinity to human HER3. Bio-Layer Interferometry (BLI) experiments were performed using the Octet QK384 system (ForteBio). anti-Human IgG Capture (AHC) Octet sensor tips (Pall ForteBio, USA) were used to anti-HER3 antibodies (25 nM). All measurements were performed at 25° C. with agitation at 1000 rpm. Kinetic measurements for antigen binding were performed by loading His-tagged human HER3 antigens at different concentrations for 120 s, followed by a 120 s dissociation time by transferring the biosensors into assay buffer containing wells. Sensograms were referenced for buffer effects and then fitted using the Octet QK384 user software (Pall ForteBio, USA). Kinetic responses were subjected to a global fitting using a one site binding model to obtain values for association (Kon), dissociation (Koff) rate constants and the equilibrium dissociation constant (KD). Only curves that could be reliably fitted with the software (R^2>0.90) were included in the analysis.
Bio-Layer Interferometry (BLI) experiments were performed using the Octet QK384 system (ForteBio). […] Binding was detected using titrated HIS-tagged human HER3 in steps of baseline (60 s), loading (120 s), baseline2 (60 s), association (120 s), dissociation (FcA 120 s, FcB 600 s) and regeneration (15 s). Sensorgrams were analysed as described in Example 3.3. […]

His-tagged human HER3 = His-tagged human HER3 (Homo sapiens, UniProt P21860); assay: BLI competition between anti-HER3 antibodies for binding to HER3
Protocol: Bio-Layer Interferometry (BLI) experiments were performed using the Octet QK384 system (ForteBio). anti-Penta-HIS (HIS1K) coated biosensor tips (ForteBio, USA) were used to capture His-tagged human HER3 (75 nM; 300 s). Binding by saturating antibody ([…]; 600 s) was detected, followed by a dissociation step (120s), followed by detection of binding with competing antibody (300 nM; 300 s), followed by a dissociation step (120s).
BLI experiments were performed as described in Example 3.5 with one alteration: 400 nM of competing antibodies were used. The variable regions of M-05-74 and M-08-11 antibodies were cloned in the PDZ vector having human IgG1 and IgKappa Fc backbone.

[1] = test system: SNU16 cell-line derived mouse gastric carcinoma model; assay: SNU16 cell-line derived xenograft model; assay type: in vivo; settings: SNU16, IP biweekly 500 μg, 9 doses
Protocol: Tumor volumes were measured 3 times a week using a digital caliper and calculated using the formula [L ×W2/2]. Study End point was considered to have been reaches once the tumors of the control arm measured >1.5 cm in length.
The model was established by subcutaneous injection of 1×10^6 SNU16 cells into the right flank (n=6 mice per treatment group).
10D1 was administered IP, biweekly at 500 μg per dose (for a total of 9 doses); a control treatment group received an equal volume of PBS.

[2] = Pharmacokinetic analysis in NCr nude mice; settings: 500 μg
Protocol: Female NCr nude mice approximately 6-8 weeks old were housed under specific pathogen-free conditions and treated in compliance with the Institutional Animal Care and Use Committee (IACUC) guidelines. 500 μg anti-HER3 antibody was administered and blood was obtained from 3 mice by cardiac puncture at baseline (−2 hr), 0.5 hr, 6 hr, 24 hr, 96 hr, 168 hr and 336 hr after administration. Antibody in the serum was quantified by ELISA.
The parameters for the pharmacokinetic analysis in rats and mice were derived from a non-compartmental model: maximum concentration (Cmax), AUC (0-336 hr), AUC (0-infinity), Half-life (t1/2), Clearance (CL), Volume of distribution at steady state (Vd).
Antibody in the serum was quantified by ELISA.
A single dose PK study was performed in NCr Nude mice (25 mg/kg HMBD-001, IV). A single dose PK study including a range of dose levels (2, 5, 10 and 25 mg/kg HMBD-001, IP) was conducted in A549 tumour bearing mice.

T1 sequence (Q62799 20-1339): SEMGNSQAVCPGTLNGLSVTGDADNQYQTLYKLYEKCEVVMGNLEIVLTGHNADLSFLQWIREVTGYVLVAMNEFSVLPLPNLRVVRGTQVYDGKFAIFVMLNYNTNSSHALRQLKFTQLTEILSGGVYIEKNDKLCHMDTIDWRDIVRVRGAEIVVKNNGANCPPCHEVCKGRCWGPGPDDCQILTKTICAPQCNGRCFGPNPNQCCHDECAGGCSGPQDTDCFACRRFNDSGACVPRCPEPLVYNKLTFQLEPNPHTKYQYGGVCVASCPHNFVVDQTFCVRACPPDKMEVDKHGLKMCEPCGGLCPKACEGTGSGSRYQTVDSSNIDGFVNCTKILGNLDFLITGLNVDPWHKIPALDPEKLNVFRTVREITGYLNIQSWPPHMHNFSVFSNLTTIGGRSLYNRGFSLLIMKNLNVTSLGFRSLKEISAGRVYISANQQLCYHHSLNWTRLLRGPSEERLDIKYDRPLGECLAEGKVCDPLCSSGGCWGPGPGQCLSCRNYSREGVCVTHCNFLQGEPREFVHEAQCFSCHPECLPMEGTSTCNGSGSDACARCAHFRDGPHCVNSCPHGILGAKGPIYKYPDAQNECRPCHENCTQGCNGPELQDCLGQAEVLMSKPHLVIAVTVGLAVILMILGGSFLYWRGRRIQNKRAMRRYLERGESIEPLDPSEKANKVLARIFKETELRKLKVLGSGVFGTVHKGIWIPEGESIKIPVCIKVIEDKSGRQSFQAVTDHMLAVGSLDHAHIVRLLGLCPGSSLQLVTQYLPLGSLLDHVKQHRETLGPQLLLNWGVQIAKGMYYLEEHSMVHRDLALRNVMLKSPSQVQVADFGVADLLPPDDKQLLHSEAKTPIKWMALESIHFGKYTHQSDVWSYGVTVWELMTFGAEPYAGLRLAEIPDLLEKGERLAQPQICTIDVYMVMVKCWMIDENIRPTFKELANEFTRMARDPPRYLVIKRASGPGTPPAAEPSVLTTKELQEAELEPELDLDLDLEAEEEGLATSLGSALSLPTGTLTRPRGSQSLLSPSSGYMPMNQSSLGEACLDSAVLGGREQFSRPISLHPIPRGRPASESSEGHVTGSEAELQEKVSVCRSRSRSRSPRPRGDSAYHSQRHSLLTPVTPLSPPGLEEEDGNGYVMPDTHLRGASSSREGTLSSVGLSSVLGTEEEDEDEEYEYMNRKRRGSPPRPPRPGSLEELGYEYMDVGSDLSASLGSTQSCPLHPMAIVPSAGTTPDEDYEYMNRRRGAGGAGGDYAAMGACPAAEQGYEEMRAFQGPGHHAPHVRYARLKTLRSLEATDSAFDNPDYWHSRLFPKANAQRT

binding / cross-reactivity with rat HER3 (rat HER3): substantial cross-reactivity | binding to human HER2 (human HER2): not to bind | Kd (human HER3): 9.58 nM
B1: 10D1: anti-HER3 antibody clone, VH SEQ ID NO:24, VL SEQ ID NO:74; [1] of Example 2.2 (antibody, V domains shown)
VH: DVQLQESGPDLVKPSQSLSLTCTVTGYSITSGYSWHWIRQFPGNKLEWMGSIHYSGGTNYNPSLKSRISITRDTSKNQFFLQLNSVTTEDTATYFCARMTTAPRYPFDYWGQGTTLTVSS
VL: DIVMTQSQKFMSTSVGDRVSVTCKASQIVGSNVAWYQQKPGQSPKPLIYSASYRYSGVPDRFTASGSGTDFTLTITNVQSEDLAEYFCQQYSSHPLTFGAGTKLELK
competition with MM-121 and/or LJM-716 for binding to HER3 (His-tagged human HER3): not to compete; also recorded: distinct and topologically distant epitope | inhibition of tumor growth [1]: ~68% | half-life [2]: 16.3 days
